Test results published in paper PMC8034431.
Blank lines part the entries; values can stand above or below the molecule they belong to.

Key:
[1] = molecular target: wild-type FLT3 ligand (FLWT); assay: SEC-MALS; ligand mixed with FLT3_(D1-D5) (20% molar excess of FL_(L27D)); Superdex 200 Increase, HBS (20 mM HEPES pH 7.4, 150 mM NaCl), 0.5 ml/min, 25 °C; glycoprotein conjugate analysis; N for FLWT counts FLT3 molecules for each dimeric FLWT
[2] = molecular target: human FLT3 domains 1-5 (FLT3_(D1-D5)) (human) (UniProt P36888); assay: as above

stoichiometry N [1]: 2
Molecule: human FLT3 domains 1-5 (FLT3_(D1-D5)) (from UniProt P36888 27-541) (domain or fragment)

stoichiometry N [2]: 1
B1: FLT3 ligand Leu27Asp mutant (FL_(L27D)), as produced (ligand)
chain: TQDCSFQHSPISSDFAVKIRELSDYLDQDYPVTVASNLQDEELCGGLWRLVLAQRWMERLKTVAGSKMQGLLERVNTEIHFVTKCAFQPPPSCLRFVQTNISRLLQETSEQLVALKPWITRQNFSRCLELQCQP
